Laboratory results published in US20260201032A1 (UNIVERSITAT DE BARCELONA, published 2026).

Target: T1, CD229 hDI/DIII/DIV mDII (human; mouse, UniProt Q9HBG7 48-158; Q01965 159-249; Q9HBG7 251-655, limits assumed)
T1 construct: domain: DI;domain: DII;domain: DIII/DIV; Expressed on transiently transfected COS cells; also called chimeric mouse human molecule where the second Ig domain of Ly9 was substituted the corresponding mouse domain
T1 sequence (looked up): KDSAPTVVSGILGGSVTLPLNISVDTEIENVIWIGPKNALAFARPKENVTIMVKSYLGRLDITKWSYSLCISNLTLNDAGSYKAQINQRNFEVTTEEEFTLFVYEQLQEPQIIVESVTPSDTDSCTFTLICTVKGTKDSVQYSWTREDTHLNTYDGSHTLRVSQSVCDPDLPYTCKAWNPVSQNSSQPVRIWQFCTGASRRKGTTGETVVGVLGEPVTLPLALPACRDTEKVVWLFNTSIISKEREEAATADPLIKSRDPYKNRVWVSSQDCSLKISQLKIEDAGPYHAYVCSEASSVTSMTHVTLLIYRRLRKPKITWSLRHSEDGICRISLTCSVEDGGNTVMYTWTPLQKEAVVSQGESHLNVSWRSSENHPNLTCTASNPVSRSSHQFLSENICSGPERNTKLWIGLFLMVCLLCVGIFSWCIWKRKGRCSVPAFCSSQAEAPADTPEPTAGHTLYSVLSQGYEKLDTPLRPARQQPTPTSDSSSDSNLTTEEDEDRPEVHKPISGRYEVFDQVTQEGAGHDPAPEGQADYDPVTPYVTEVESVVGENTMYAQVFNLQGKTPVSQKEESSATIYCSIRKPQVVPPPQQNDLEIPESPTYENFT
Experiment: flow cytometry on transiently transfected COS cells
Source text: The mapping to the first or second domain was done as described in Romero et al 2005. Three different human Ly9 constructs were used: full-length human Ly9, a Ly9 isoform that […] and a chimeric mouse human molecule where the second Ig domain of Ly9 was substituted the corresponding mouse domain. The transfected cells were stained with different anti-human antibodies using flow cytometry.
^aCOS cells were transiently transfected with chimeric human (h)/mouse (m) constructs or the isoform lacking the first V-like Ig domain (CD229 ΔDI) described in Materials and Methods. CD229 mAbs were assayed by flow cytometry: +, Detection of protein expression, −, nondetection of protein expression. ^bDomain recognized by the mAb.

B1: HLy9.1.84 (antibody, V domains shown)
VH: QMQLQESGPELVKPGASVKISCKASGYTFTHYYINWVQQRPGQGLEWIGWIFPESGSTYYSEKFKAKATLTVDKSSSTAYMLLSSLTSEDSAVYFCARGTGFFDYWGQGTTLTVSS
VL: QIVLTQSPAIMSASPGEKVTVTCSASSSVSYMFWYQQKPGFSPRLLIYDTSNLASGVPVRFSGSGSGTSYSLTISRMEAEDAATYYCQQWSSYPPTFGGGTKLEIK
notes: also called HLy91.184
binding result: no binding
